Data reported in patent US20230220589A1.

B1: SEQ ID NO 30 (designed binder, not shown: small tags and cut ends; large carriers)
chain: QDSTQNLIPAPPLISVPLQPGFWTERFQGRWFNVGIAGNAVQKERQSRFTMLSLISELQEDNSYNWTLISVRGQGCRYRILTWVPSSRPGQFTLGNIHSYPQIQSLDVQVADTDYDQFAMVFAQGTSENKQYFEVILMGRTKGLSDELKERFVSFAKSLGLKDNNIVFSVPTDQCIDN
B2: SEQ ID NO 32 (designed binder, not shown: small tags and cut ends; large carriers)
chain: QDSTQNLIPAPPLISVPLQPGFWTERFQGRWFSVGMAGNAVQKERQSRFTMGSCIMELQEDNSYNLTFIGVRGQGCRYRILTWVPSSRPGQFTLGNIHSYPQIQSADVQVADTDYDQFAMVFWQTTSENKQYFAVELWGRTKGLSDELKERFVSFAKSLGLKDNNIVFSVPTDQCIDN
B3: SEQ ID NO 43 (designed binder, not shown: small tags and cut ends; large carriers)
chain: TVPDRSEIAGKWYVVALASNTEFVLREKDWLKLAMARISFLGEDELKVSMTTPGPNGCTKWERTLKKTSDDGEVYSSPRAKEKVEVLDTDYKSYAVIYATAVKDGRTLHEMWLYSRSPEVSPAATAIFRKLAGERNYTDEMVAMLPRQEECTVDEV
B4: SEQ ID NO 44 (designed binder, not shown: small tags and cut ends; large carriers)
chain: TVPDRSEIAGKWYVVALASNTEFFLREKDRIKTAMARISFLGEDELKVSLARPAPNGCHKAEWTFKKTSDDGEVYTSFLAKFKVEVLDTDYKSYAVIYATPVKDGRTRHEMLLYSRSPEVSPAATAIFRKLAGERNYTDEMVAMLPRQEECTVDEV
B5: SEQ ID NO 23 (designed binder, not shown: small tags and cut ends; large carriers)
chain: QVSVQPNFQQDKFLGRWFLAGAASNSSWLREKNAALSYAKLVVAPATDGGLNSTVTRLRKNQCETETRLLQPAGSLGSYSWRSPHLGSTLSLSVVETDYDQYALVYAQGSKGPGEDVRGAELLSRTQTPRAELKEKFTAFSKAQGFTEDTIVFLPQTDKCMTEQ
B6: SEQ ID NO 24 (designed binder, not shown: small tags and cut ends; large carriers)
chain: QVSVQPNFQQDKFLGRWFYAGLASNSSWLREKCAALSSAKAVVAPATDGGLNVTETWLRKNQCETGTELLQPAGSLGSYSFRSPHRGSTLSLSVVETDYDQYALLYRQGSKGPGEDERRALLMSRTQTPRAELKEKFTAFSKAQGFTEDTIVFLPQTDKCMTEQ
B7: SEQ ID NO 25 (designed binder, not shown: small tags and cut ends; large carriers)
chain: QVSVQPNFQQDKFLGRWFIAGLASNSSWVREKSAALSQAKVVVAPATDGGLNVTVTVLRKNQCETYTVLLQPAGSLGSYSSRSPHFGSTVSLSVVETDYDQYALWYAQGSKGPGEDMRHAELWSRTQTPRAELKEKFTAFSKAQGFTEDTIVFLPQTDKCMTEQ
B8: SEQ ID NO 26 (designed binder, not shown: small tags and cut ends; large carriers)
chain: QVSVQPNFQQDKFLGRWFAAGYASNSSWRRERSAALSMAKVVVAPATDGGLNWTETILRKNQCETATNLLQPAGSLGSYSIRSPHAGSTSSMSVVETDYDQYALLYAQGSKGPGEDFRLAILLSRTQTPRAELKEKFTAFSKAQGFTEDTIVFLPQTDKCMTEQ
B9: SEQ ID NO 22 (designed binder, not shown: small tags and cut ends; large carriers)
chain: QVSVQPNFQQDKFLGRWFTAGLASNSSWLREKFAALSHAKTVVAPATDGGLNLTVTVLRKNQCETSTLLLQPAGSLGSYSRRSPHVGSTGSVSVVETDYDQYALIYDQGSKGPGEDWRIAELVSRTQTPRAELKEKFTAFSKAQGFTEDTIVFLPQTDKCMTEQ
B10: SEQ ID NO 38 (designed binder, not shown: small tags and cut ends; large carriers)
chain: QVSVQPNFQQDKFLGRWFPAGFASNSSWDREKPAALSLAKMVVAPATDGGLNWTETYLRKNQCETTTHLLQPAGSLGSYSYRSPHFGSTRSLSVVETDYDQYALFYSQGSKGPGEDHRGAWLLSRTQTPRAELKEKFTAFSKAQGFTEDTIVFLPQTDKCMTEQ
B11: SEQ ID NO 39 (designed binder, not shown: small tags and cut ends; large carriers)
chain: QVSVQPNFQQDKFLGRWFLAGLASNSSWAREKIAALSDAKFVVAPATDGGLNGTVTVLRKNQCETATGLLQPAGSLGSYSWRSPHDGSTLSLSVVETDYDQYALVYEQGSKGPGEDLRIAALWSRTQTPRAELKEKFTAFSKAQGFTEDTIVFLPQTDKCMTEQ
B12: SEQ ID NO 46 (designed binder, not shown: small tags and cut ends; large carriers)
chain: TVPDRSEIAGKWYVVALASNTEFHLREKDNLKVAMARISFLGEDELKVSEAVPTPNGCMKHESTWKKTSDDGEVYRSRKAKQKVEVLDTDYKSYAVIYATRVKDGRTHHWMLLYSRSPEVSPAATAIFRKLAGERNYTDEMVAMLPRQEECTVDEV
B13: SEQ ID NO 36 (designed binder, not shown: small tags and cut ends; large carriers)
chain: QDSTQNLIPAPPLISVPLQPGFWTERFQGRWFIVGAAGNAVQKERQSRVTMGSVIWELQEDNSYNLTFISVRGQGCRYWIETWVPSSRPGQFTLGNIHSYPQIQSADVQVADTDYDQFAMVFVQYTSENKQYFMVRLLGRTKGLSDELKERFVSFAKSLGLKDNNIVFSVPTDQCIDN
B14: SEQ ID NO 40 (designed binder, not shown: small tags and cut ends; large carriers)
chain: QVSVQPNFQQDKFLGRWFYAGLASNSSWIREKYAALSLAKSVVAPATDGGLNWTETSLRKNQCETGTVLLQPAGSLGSYSLRSPHHGSTISVSVVETDYDQYALVYRQGSKGPGEDSRRAILMSRTQTPRAELTEKFTAFSKAQGFTEDTIVFLPQTDKCMTEQ
B15: SEQ ID NO 41 (designed binder, not shown: small tags and cut ends; large carriers)
chain: QVSVQPNFQQDKFLGRWFYAGMASNSSWLREKSAALSAAKFVVAPATDGGLNFTETFLRKNQCETTTILLQPAGSLGSYSVRSPHVGSTVSISVVETDYDQYALFYVQGSKGPGEDNRMALLGSRTQTPRAELKEKFTAFSKAQGFTEDTIVFLPQTDKCMTEQ
B16: SEQ ID NO 28 (designed binder, not shown: small tags and cut ends; large carriers)
chain: QVSVQPNFQQDKFLGRWFLAGMASNSSWMREKFAALSVAKFVVAPATDGGLNTTTTLLRKNQCETFTRLLQPAGSLGSYSSRSPHLGSTVSGSVVETDYDQYALLYEQGSKGPGEDGRKAWLGSRTQTPRAELKEKFTAFSKAQGFTEDTIVFLPQTDKCMTEQ
B17: SEQ ID NO 29 (designed binder, not shown: small tags and cut ends; large carriers)
chain: QVSVQPNFQQDKFLGRWFVAGVASNSSWMREKVAALSGAKVVVAPATDGGLNYTETWLRKNQCETWTGLLQPAGSLGSYSQRSPHGGSTNSLSVVETDYDQYALLYVQGSKGPGEDPRVAVLWSRTQTPRAELKEKFTAFSKAQGFTEDTIVFLPQTDKCMTEQ
B18: SEQ ID NO 37 (designed binder, not shown: small tags and cut ends; large carriers)
chain: QDSTQNLIPAPPLISVPLQPGFWTERFQGRWFLVGLAGNAVQKERQSRRTMSSLILELQEDNSYNETWINVRGQGCRYRIGTVVPSSRPGQFTLGNIHSYPQIQSLDVQVADTDYDQFAMVFTQFTSENKQYFYVRLMGRTKGLSDELKERFVSFAKSLGLKDNNIVFSVPTDQCIDN
B19: SEQ ID NO 47 (designed binder, not shown: small tags and cut ends; large carriers)
chain: TVPDRSEIAGKWYVVALASNTEFFLREKDNFKMAMARISFLGEDELKVSEAVPTPNGCFKAEFTGKKTSDDGEVYWSQTAKYKVEVLDTDYKSYAVIYATNVKDGRTVHAMNLYSRSPEVSPAATAIFRKLAGERNYTDEMVAMLPRQEECTVDEV
B20: SEQ ID NO 52 (designed binder, not shown: small tags and cut ends; large carriers)
chain: QIPLCANLVPVPITNATLDRITGKWFIIASASRNEEYNKSVQQAQSTAFYITPNKTEDTIFLRRYQTRQNQCFYNSSYLNVQRENGTVSYYRGGRERVSHLLFLRDTKTLMIGSYLDDEKNWGLVFGADKPETTKEQLGEFYEALDCLRIPRSDVMYTDWKKDKCEPLEKQHEKERKQEEGES
B21: SEQ ID NO 56 (designed binder, not shown: small tags and cut ends; large carriers)
chain: QIPLCANLVPVPITNATLDRITGKWFLIASAIRNEEYNKSVQAVQSTAFYWTPNKTEDTIFARYYQTRQNQCFYNSSYLNVQRENGTVSWYAGGREFVSHLLFLRYTKTLMWGGYLDDEKNWGLEFYADKPETTKEQLGEFYEALDCLRIPRSDVMYTDWKKDKCEPLEKQHEKERKQEEGES
B22: SEQ ID NO 54 (designed binder, not shown: small tags and cut ends; large carriers)
chain: QIPLCANLVPVPITNATLDRITGKWFVIASATRNEEYNKSVQRQQGTVFYYTPNKTEDTIFVRRYQTRQNQCFYNSSYLNVQRENGTVSFYEGGRELVFHLLFLRDTKTLMWGLYLDDEKNWGLEFFADKPETTKEQLGEFYEALDCLRIPRSDVMYTDWKKDKCEPLEKQHEKERKQEEGES
B23: SEQ ID NO 55 (designed binder, not shown: small tags and cut ends; large carriers)
chain: QIPLCANLVPVPITNATLDRITGKWFRIASAFRNEEYKKSVQEVQTTSFYFTPNKTEDTIFARFYQTRQNQCFYNSSYLNVQRENGTVSLYSGGREAVLHLLFLRDTKTLMLGVYLDDEKNWGLSFYADKPETTKEQLGEFYEALDCLRIPRSDVMYTDWKKDKCEPLEKQHEKERKQEEGES

molecular target: M44-modified F NTAA target peptides (M44-F-P2-peptide); assay: Gini coefficient of P2 tolerance from multiplex encoding heatmap

Binder | P2 score
B1 | 0.378
B2 | 0.379
B3 | 0.359
B4 | 0.485
B5 | 0.456

molecular target: M44-modified L NTAA target peptides (M44-L-P2-peptide); assay: as above

Binder | P2 score
B6 | 0.375
B7 | 0.543
B8 | 0.498
B9 | 0.431
B10 | 0.251
B11 | 0.426
B12 | 0.289

molecular target: M44-modified I NTAA target peptides (M44-I-P2-peptide); assay: as above

Binder | P2 score
B13 | 0.197
B14 | 0.144
B15 | 0.217

molecular target: M48-modified F NTAA target peptides (M48-F-P2-peptide); assay: as above

Binder | P2 score
B16 | 0.318
B17 | 0.387

molecular target: M44-modified A NTAA target peptides (M44-A-P2-peptide); assay: as above

Binder | P2 score
B18 | 0.195
B19 | 0.466

molecular target: M90-modified W NTAA target peptide; assay: affinity comparison between P1 residues (method not specified; BLI / encoding assay)

Binder | fold affinity over an otherwise identical peptide with a different P1 [fold]
B20 | > 2

molecular target: M90-modified M NTAA target peptide; assay: as above

Binder | fold affinity over an otherwise identical peptide with a different P1 [fold]
B21 | > 2

molecular target: M90-modified A NTAA target peptide; assay: as above

Binder | fold affinity over an otherwise identical peptide with a different P1 [fold]
B22 | > 2

molecular target: M90-modified H NTAA target peptide; assay: as above

Binder | fold affinity over an otherwise identical peptide with a different P1 [fold]
B23 | 2

molecular target: M44-modified F NTAA target peptides (M44-F-P2-peptide); assay: Gini coefficient of P1 selectivity from multiplex encoding heatmap

Binder | P1 score
B1 | 0.433
B2 | 0.173
B3 | 0.408
B4 | 0.241
B5 | 0.387

molecular target: M44-modified L NTAA target peptides (M44-L-P2-peptide); assay: as above

Binder | P1 score
B6 | 0.452
B7 | 0.478
B8 | 0.501
B9 | 0.418
B10 | 0.403
B11 | 0.286
B12 | 0.225

molecular target: M44-modified I NTAA target peptides (M44-I-P2-peptide); assay: as above

Binder | P1 score
B13 | 0.326
B14 | 0.357
B15 | 0.323

molecular target: M48-modified F NTAA target peptides (M48-F-P2-peptide); assay: as above

Binder | P1 score
B16 | 0.392
B17 | 0.189

molecular target: M44-modified A NTAA target peptides (M44-A-P2-peptide); assay: as above

Binder | P1 score
B18 | 0.319
B19 | 0.173
